± gives the standard error. This sample holds only a part of the variants without activity.
B1: glmS ribozyme (parent)
chain: AUAAAAGCGCCAGAACUACAGAAAUGUAGUUGACGAGGAGGAGGUUUAUCGAAUUUUCGGCGGAUGCCUCCAAA

Variants of: B1
Assay: self-cleavage kobs at 2500 uM GlcN6P; higher = faster cleavage; RNA array
Conditions: with glucosamine-6-phosphate
Summary of the method: (§1)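 Glucosamine-6-phosphate (40 μM to 10 mM) in HEPES/KCl/Mg(OAc)2 buffer was flowed over sequenced MiSeq chips, and tiles were imaged over ~14 h. Barcoded ribozyme variants there had been transcribed in situ by E. coli RNA polymerase and were tracked through a hybridised Cy3 probe at 37 °C. One- or two-exponential decay fits to per-tile medians, normalised to baseline and to non-cleaving reference variants, gave kobs. kcat and KM came from weighted Michaelis–Menten fits across concentrations.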

| Variant | self-cleavage kobs at 2500 uM GlcN6P [s⁻¹] |
| --- | --- |
| AUAAAAGCGCCAGAACUACAGAAAUGUAGUUGACGAGGAGGAGGUAUAACGAAUUUUCGGCGCAUGGCUCCAAA | < 1e-05 |
| AUAAAAGCGCUAGAACUACAGAAAUGUAAUUGACGAGGAGGAGGUUUAUCGAAUUUUCGGCGGAUGCCUACAAA | 0.000404 ± 0.00014 |
| AUAAAAGCGCCACACCUACAGAAAUGUAGUUUACGAGGAGGAGAUUUAUCGAAUUUUCUGCGGAUGCCUCCAAA | < 1e-05 |
| AUAAAACCGCCAGGACUACAGAAAUGUAGUUGACGAGGAGGAAGUACAUCGAAUUUUCGUCGGAUGCCUCCAAA | < 1e-05 |
| AUAAAAGCGCCAGAACUACAGAAAUGUAGUUGACGAGGAGGAGGUUUAUGGAAUUUUAGGCGGAUGCGUCCAAA | 9.4e-05 ± 1.9e-05 |
| AUAAAAGCGUCAGAAGUACAGAAAUGUAGUUGAGGAGGGGGAGGUUUAUCGAAUUUUCGGCGGAUGCCUCCAAA | < 1e-05 |
| AUAAAAGCGCCAGAACUACAGAAAUGUAGUUGGCGAGGAGGAGGUUUAUCGAAUUUUCGGCGGAUGCCGCCAAA | 5.67e-05 ± 1.7e-05 |
| AUAAAAGCGUAAGAACUACAGAAAUGUAGUUGACGAGGAAGAGGUUUAUCGAAUUUUCGGCGGAUGCCUCCAAA | < 1e-05 |
| AUAAAAGCACCAGGACUACAGAAAUGUAGUUGCCGAGUAGGAGGUUUAUCGAAUUUACGGCGGAUGCCUCCAAA | < 1e-05 |
| AUAAAAGCGCCAGAACUACAGAAAUGUAGUUGACGAGGAGGAGGUUUACCGAAUUUUCGGCGGAUGCUUCCAAA | < 1e-05 |
| AUAAAAGCGCCAGAACUACAGAAAUGUAGUCGACUAGGAGGAGGUUUUGCGAAUUUCCGGCGGAUGCCUCCAAA | < 1e-05 |
| AUAAAAGCGCCAGAACUACAGAAAUGUAGUUGACGAGGAGGAGGUUUAUCGAAUUUUCGGCGCAUCGCUCCAAA | < 1e-05 |
| AUAAAAGCGCCAGAACUACAGAAAUGUAGUUGACAAGGAGGUGAUUUAUCGAAUUUUCGGCGGAUGCCUCCAAA | < 1e-05 |
| AUAAAAGCGCCUGAAAUACAGAAAUGUAGUUGACGAGGAGGUGGUUUAUCUAAUUUUCGGCGGAUGCCUCCAAA | < 1e-05 |
| AUAAAAGCGCCAGAACUACAGAAAUGUAGUUGACGAGGAUGAGGUGUCUCGAAUUUUCGGCGGAUGCCUCCAAA | < 1e-05 |
| AUAAAAGCGCCAGAACUACAGAAAUGUAGUUGACGUGAAGGAGGUUCAUCGAAUUUUCGGCGGAUGCCUCCAAA | < 1e-05 |
| AUAAAAGCGCCAGAACUACAGAAAUGUAGUUGACGAGGAUGAUGUUUAUCGAAUUUUCGGCGGAUGCCUGCAAA | < 1e-05 |

| Variant | self-cleavage kobs at 2500 uM GlcN6P [s⁻¹] |
| --- | --- |
| AUAAAAGCGCCGGAACUACAGAAAUGUAGUAGACGAGCAUAAGGUUUAUCGAAUUUUAGGCGGAUGCCUCCAAA | < 1e-05 |
| AUAAAAGCGCCAGAACUACAGAAAUGUAGUUAACGAGGAGGAGGCUUAUCGAAUUUUCGGCGGAUGCCUCCAAA | 0.000112 ± 3.8e-05 |
| AUAAAAGAGCUAGAACUACAGAAAUGUAGUUGAGGAGAAGGAGGUUUAUCGAAUUUUCGGCGGAUGCCUCCAAA | < 1e-05 |
| AUAAAAGCGCCAGCACUACAGAAAUGUAGUUGACGAGGAGGAUGUUUAUCGAAUUUUCGGAGGAUGCCUCCAAA | < 1e-05 |
| AUAAAAGUGCCAGAACUACAGAAAUGUAGUUGACGAGCAGGAGGUUUAUCGAAUUUUCGGAGGAUGCCUCCAAA | < 1e-05 |
| AUAAAAGCGCCAGAACUACAGAAAUGUAGUUGACGAGGAGGAGGUGUAUCGAAUUUUCGGCGUAUGCCUACAAA | < 1e-05 |
| AUAAAAGCGCCAGAACUACAGAAAUGUAGUUGAUUAGGAGGAGGUUUAUCGAAUUUUCGGCCGAUGCCUCCAAA | < 1e-05 |
| AUAAAAGCGCCAGGACUACAGAAAUGUAGUUGACGAGGACCAGGUUUGUCGAAUUUUCGGCGGAUGCCUCGAAA | < 1e-05 |
| AUAAAAGCUCCAGAACUACAGAAAUGUAGUUCACGAGGAGUAGGUUGAUCGGAUUUUCGGCGGAGGCCACCAAA | < 1e-05 |
| AUAAAAGCGCCAGAACUACAGAAAUGUAGUUGACGAGGCGGAGGUUUAUCGAAUUUUCGGCGGAUGGCUACAAA | < 1e-05 |
| AUAAAAGCGGCAGAACUACAGAAAUGUAGUUGACGAGGAGGGGGUUUCUCGAAUUUUCGGCGGAUGCCUCCAAA | < 1e-05 |
| AUAAAAGCGCCAGAACUACAGAAAUGUAGUUCACCAGGAGGACGUUUAUCGAAUUUUUGGCGGAUGCCCCCAAA | < 1e-05 |
| AUAAAAGCGCCAGUACUACAGAAAUGUAGUUGACGAGCAGGUGGUUUAUCGAAUUUUCGGCGGAUGCCUCCAAA | < 1e-05 |
| AUAAAAGCGAUAGAACUACAGAAAUGUAGUUGACGCGGAGGAGGUUUAUCGAAUUUUCGGCGGAUGCCUCCAAA | < 1e-05 |
| AUAAAAGCGCCAGAACUACAGAAAUGUAGUGGACGAGGAGGAGGUUUAUCGAAUUUUCGGAGGAUGACUCCAAA | 0.000101 ± 2.8e-05 |
| AUAAAAGCGGCAGAACUACAGAAAUGUAGUUCACGAGGAGGAGGUUUAUCGACUUUUCGGCGUGUGCCUCCAAA | < 1e-05 |

Variants of: B1
Assay: self-cleavage kobs at 10000 uM GlcN6P; higher = faster cleavage; RNA array
Conditions: with glucosamine-6-phosphate
Summary of the method: as §1

| Variant | self-cleavage kobs at 10000 uM GlcN6P [s⁻¹] |
| --- | --- |
| AUAAAAGCGCUAGAACUACAGAAAUGUAAUUGACGAGGAGGAGGUUUAUCGAAUUUUCGGCGGAUGCCUACAAA | 5.6e-05 ± 1.8e-05 |
| AUAAAAGCGCCAGAACUACAGAAAUGUAGUUGACGUGAAGGAGGUUCAUCGAAUUUUCGGCGGAUGCCUCCAAA | < 1e-05 |
| AUAAAAGCGCCAGAACUACAGAAAUGUAGUUAACGAGGAGGAGGCUUAUCGAAUUUUCGGCGGAUGCCUCCAAA | 9.73e-05 ± 2.3e-05 |
| AUAAAAGCGCCAGUACUACAGAAAUGUAGUUGACGAGCAGGUGGUUUAUCGAAUUUUCGGCGGAUGCCUCCAAA | < 1e-05 |

Reference: the supplement of paper PMC7125110
